Test results reported in US20250197491A1 (MACOMICS, published 2025).
Values belong to the binder of their own block, whether it stands above or below them.

Experiments:
[1] = target: T1, Human full length LILRB1 (human, UniProt Q8NHL6 24-650); assay: flow cytometry on HEK293 cells overexpressing human LILRB1
T1 construct: Over-expressed on HEK293 cells for flow cytometry; also called LILRB1 on HEK293 cells; cell membrane embedded LILRB1
Description: FIG. 5. Binding to LILRB1 over-expressing cell line. HEK293 cells overexpressing full length human LILRB1 (SEQ ID NO: 45) were incubated with various concentrations of test antibodies (Antibody 1 to 5 and Reference Ab 1). The bound antibodies were detected using PE-labeled secondary antibodies and analyzed by flow cytometry. A) Plot showing mean fluorescence intensity (MFI), B) EC50 values calculated using data from panel A.
Binding to human LILRB1 and LILRB2. HEK293 cells stably expressing full length human LILRB1 (SEQ ID NO: 45), or LILRB2 (SEQ ID NO: 46), or wild-type cells were detached from the culture plates using methods known in art. […] The extent of antibody binding to cells stably expressing full-length human LILRB1, or full-length human LILRB2, was determined by flow cytometry and quantified using geometric mean of the fluorescent signal (GEOM).
The ability of selected anti-LILRB-1 antibodies to bind to the LILRB1 receptor in its native context of the cell membrane was investigated by flow cytometry. HEK293 cells over-expressing full length human LILRB1 (SEQ ID NO: 45) were incubated with the increasing amounts of the antibodies and the cell bound antibodies were detected using PE-labelled secondary antibodies using a flow-cytometer.

[2] = target: T2, human LILRB1 ectodomain fused to mIgG2a Fc (human); assay: ELISA, antigen coated, 10 nM antibody
T2 construct: also called human LILRB1-mIgG2a; full length LILRB1 ectodomain
Description: (§1) FIG. 3. Mixed LILRB1 and LILRB2 expression in TAMs from melanoma cancer patients. Analysis of LILRB1 and LILRB2 detection in macrophages in pre- and post-anti-PD-1 and/or anti-CTLA-4 therapy treated melanoma patients (n=33) is shown using Smart-seq2 data from Sade-Feldman et al. https://pubmed.ncbi.nlm.nih.gov/30633907/FIG. 4. Binding to domains of human LILRB1. Plates were coated with recombinant full length LILRB1 ectodomain (SEQ ID NO: 41) or a protein comprising domain 1 and 2 of human LILRB1 protein (SEQ ID NO: 42), and then incubated with 10 nM Clones 1-5, Reference Ab 1, and Isotype control. The bound antibodies were detected using HRP-labeled secondary antibodies and the results were plotted on the graph as absorbance measured at 450 nm.
(§2) Binding to allelic forms of LILRB1. There are 4 major allelic variants of human LILRB1 protein ectodomain. The variants of LILRB1 were expressed as recombinant proteins comprising a modified LILRB1 ectodomain and mouse IgG2 Fc region (SEQ ID NO: 50 and 51) in suspension CHO cells, and purified by using techniques that were known in the art. These recombinant proteins were then used in the direct enzyme-linked immunosorbent assay (ELISA) to determine the antibodies potential to bind different allelic forms of LILRB1. In short, Maxisorp (Nunc) or similar immune-assay plates were coated with solutions of target proteins in PBS, at 4° C., overnight. Plates were then washed with PBS, blocked with 5% milk in PBS, and washed again. Test antibodies diluted in PBS were then added to the plates and incubated at room temperature for at least 1h. Plates were subsequently washed with PBS/0.05% Tween-20 (PBST) and incubated with a solution of horse radish peroxidase (HRP) labelled secondary antibodies at room temperature for at least 1 h. After washing with PBST and PBS, bound antibodies were detected using the 3,3′,5,5;-tetramethylbenzidine (TMB) chromogenic solution. After 5 to 10 minutes, the reaction was stopped with 1% sulphuric acid and absorbance read at 450 nm.
(§3) There are four major allelic variants within the ecto-domain of LILRB1 in human population [Human Molecular Genetics, 2005, Vol. 14, 2469-2480]; namely c.203T>C (L68P), c.277G>A (A93T), c.425T>C (I142T), and c.464G>T (S155I).

[3] = target: T3, Human LILRB1 (D1-D2) fused to mouse IgG2a Fc (human); assay: ELISA, antigen coated, 10 nM antibody
T3 construct: also called truncated (D1-D2) version of the LILRB1 ecto-domain
Description: as §1, §2, §3

[4] = target: T4, Human full length LILRB2 (human, UniProt Q8N423 22-597); assay: flow cytometry on HEK293 cells overexpressing human LILRB2
T4 construct: Over-expressed on HEK293 cells for flow cytometry; Also used here as the parent protein of the D3-D4 peptide microarrays; also called LILRB2 on HEK293 cells
Description: FIG. 7. Binding to LILRB2 over-expressing cell line. HEK293 cells overexpressing full length human LILRB2 (SEQ ID NO: 46) were incubated with various concentrations of test antibodies (Antibody 1 to 5 and Reference Antibody 1).
Binding to human LILRB1 and LILRB2. HEK293 cells stably expressing full length human LILRB1 (SEQ ID NO: 45), or LILRB2 (SEQ ID NO: 46), or wild-type cells were detached from the culture plates using methods known in art. The cells were then incubated with anti-LILRB1 Ab clones at different concentrations followed by incubation with fluorescently labelled secondary antibodies. The extent of antibody binding to cells stably expressing full-length human LILRB1, or full-length human LILRB2, was determined by flow cytometry and quantified using geometric mean of the fluorescent signal (GEOM).

[5] = target: T5, Human LILRA1 ectodomain (human, UniProt O75019 17-461); assay: multi-point ELISA, antigen coated, apparent EC50
T5 construct: Recombinant protein from a commercial source
Description: (§4) FIG. 32. Binding of Clones 1-5 to selected LILR family members tested by multiple point ELISA. Recombinant LILRB1, LILRB2, LILRB3, LILRA1, LILRA3, LILRA4, and LILRA6, or irrelevant control protein were coated on the ELISA plates. The plates were then blocked with milk in PBST. Next, the plates were incubated with serial dilutions (12.5 nM to 0.02 nM) of Clones 1-5 (A-E). Bound antibodies were detected using HRP-conjugated anti-human Fc antibodies and the chromogenic substrate.
as §4, with “Binding of” for “FIG. 32. Binding of”, “point ELISA. (FIG. 32) Recombinant LILRB1,” for “point ELISA. Recombinant LILRB1,”, “LILRA3, LILRA4, LILRA6, or” for “LILRA3, LILRA4, and LILRA6, or”, “nM) of Clone 1-5 (A-E).” for “nM) of Clones 1-5 (A-E).”

[6] = target: LILRB2 recombinant, full-length ectodomain (LILRB2 22-458) (human, UniProt Q8N423 22-458); assay: multi-point ELISA, antigen coated, apparent EC50
Description: as §4
as §4, with “Binding of” for “FIG. 32. Binding of”, “point ELISA. (FIG. 32) Recombinant LILRB1,” for “point ELISA. Recombinant LILRB1,”, “LILRA3, LILRA4, LILRA6, or” for “LILRA3, LILRA4, and LILRA6, or”, “nM) of Clone 1-5 (A-E).” for “nM) of Clones 1-5 (A-E).”

[7] = target: LILRA4 recombinant, full-length ectodomain (LILRA4 24-446) (human, UniProt P59901 24-446); assay: multi-point ELISA, antigen coated, apparent EC50
Description: as §4
as §4, with “Binding of” for “FIG. 32. Binding of”, “point ELISA. (FIG. 32) Recombinant LILRB1,” for “point ELISA. Recombinant LILRB1,”, “LILRA3, LILRA4, LILRA6, or” for “LILRA3, LILRA4, and LILRA6, or”, “nM) of Clone 1-5 (A-E).” for “nM) of Clones 1-5 (A-E).”

[8] = target: T6, Human full length LILRA3 (human, UniProt Q8N6C8 24-439); assay: multi-point ELISA, antigen coated, apparent EC50
T6 construct: Commercial recombinant protein; also the parent of the LILRA3 peptide microarrays
Description: as §4
as §4, with “Binding of” for “FIG. 32. Binding of”, “point ELISA. (FIG. 32) Recombinant LILRB1,” for “point ELISA. Recombinant LILRB1,”, “LILRA3, LILRA4, LILRA6, or” for “LILRA3, LILRA4, and LILRA6, or”, “nM) of Clone 1-5 (A-E).” for “nM) of Clones 1-5 (A-E).”

[9] = target: LILRA6 recombinant, full-length ectodomain (LILRA6 24-447) (human, UniProt Q6PI73 24-447); assay: multi-point ELISA, antigen coated, apparent EC50
Description: as §4
as §4, with “Binding of” for “FIG. 32. Binding of”, “point ELISA. (FIG. 32) Recombinant LILRB1,” for “point ELISA. Recombinant LILRB1,”, “LILRA3, LILRA4, LILRA6, or” for “LILRA3, LILRA4, and LILRA6, or”, “nM) of Clone 1-5 (A-E).” for “nM) of Clones 1-5 (A-E).”

[10] = target: LILRB3 recombinant, full-length ectodomain (LILRB3 24-443) (human, UniProt O75022 24-443); assay: multi-point ELISA, antigen coated, apparent EC50
Description: as §4
as §4, with “Binding of” for “FIG. 32. Binding of”, “point ELISA. (FIG. 32) Recombinant LILRB1,” for “point ELISA. Recombinant LILRB1,”, “LILRA3, LILRA4, LILRA6, or” for “LILRA3, LILRA4, and LILRA6, or”, “nM) of Clone 1-5 (A-E).” for “nM) of Clones 1-5 (A-E).”

[11] = target: LILRB1 recombinant, full-length ectodomain (human, UniProt Q8NHL6 24-461); assay: multi-point ELISA, antigen coated, apparent EC50
Description: as §4
as §4, with “Binding of” for “FIG. 32. Binding of”, “point ELISA. (FIG. 32) Recombinant LILRB1,” for “point ELISA. Recombinant LILRB1,”, “LILRA3, LILRA4, LILRA6, or” for “LILRA3, LILRA4, and LILRA6, or”, “nM) of Clone 1-5 (A-E).” for “nM) of Clones 1-5 (A-E).”

[12] = target: T7, Cynomolgus monkey (Macaca fascicularis) LILRB ectodomain fused to mIgG2a (cynomolgus monkey (Macaca fascicularis)); assay: summary table (ELISA); Rhesus & Cyno LILRB1/2 binding; Y = Yes
T7 construct: also called cynomolgus LILRB protein

[13] = target: T8, Rhesus monkey (Macaca mulatta) LILRB ectodomain fused to mIgG2a Fc (rhesus monkey (Macaca mulatta)); assay: as above
T8 construct: also called rhesus LILRB-mIgG2a; rhesus LILRB protein

[14] = target: LILRB5 recombinant, full-length ectodomain (LILRB5 18-456) (human, UniProt O75023 24-456); assay: summary table (single point ELISA); N = No
[15] = target: T9, Human LILRA2 ectodomain (human, UniProt Q8N149 24-449); assay: summary table (single point ELISA); N = No
T9 construct: Recombinant protein from a commercial source

[16] = target: LILRB4 recombinant, full-length ectodomain (LILRB4 17-257) (human, UniProt Q8NHJ6 22-257); assay: summary table (single point ELISA); N = No
[17] = target: LILRA5 recombinant, full-length ectodomain (LILRA5 42-268) (human, UniProt A6NI73 42-268); assay: summary table (single point ELISA); N = No
[18] = target: T2, human LILRB1 ectodomain fused to mIgG2a …; assay: summary table (ELISA); Y = Yes
[19] = target: T3, Human LILRB1 (D1-D2) fused to mouse …; assay: summary table (ELISA); N = No
[20] = target: T10, Human LILRB1(L68P/A93T) ectodomain fused to mIgG2aFc (human); assay: ELISA, antigen coated, 10 nM antibody
T10 construct: The entry already carries the two substitutions
Description: as §1, §2, §3

[21] = target: T11, Human LILRB1(I142T/S155I) ectodomain fused to mIgG2aFc (human); assay: ELISA, antigen coated, 10 nM antibody
T11 construct: The entry already carries the two substitutions
Description: as §1, §2, §3

T3 sequence (chain, as listed by the source limits assumed): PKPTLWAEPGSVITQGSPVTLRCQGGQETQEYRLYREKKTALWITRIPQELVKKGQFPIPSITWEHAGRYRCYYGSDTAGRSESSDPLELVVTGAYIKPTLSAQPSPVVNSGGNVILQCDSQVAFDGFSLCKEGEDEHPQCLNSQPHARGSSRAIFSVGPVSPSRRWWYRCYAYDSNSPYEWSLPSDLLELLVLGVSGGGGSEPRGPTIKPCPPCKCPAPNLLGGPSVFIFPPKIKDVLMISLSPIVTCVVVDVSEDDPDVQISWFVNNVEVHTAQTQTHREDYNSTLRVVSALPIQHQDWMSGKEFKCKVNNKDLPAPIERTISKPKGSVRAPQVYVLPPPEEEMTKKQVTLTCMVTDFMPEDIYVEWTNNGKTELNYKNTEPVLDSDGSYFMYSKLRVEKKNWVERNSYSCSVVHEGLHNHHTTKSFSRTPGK
T2 sequence (chain, as listed by the source limits assumed): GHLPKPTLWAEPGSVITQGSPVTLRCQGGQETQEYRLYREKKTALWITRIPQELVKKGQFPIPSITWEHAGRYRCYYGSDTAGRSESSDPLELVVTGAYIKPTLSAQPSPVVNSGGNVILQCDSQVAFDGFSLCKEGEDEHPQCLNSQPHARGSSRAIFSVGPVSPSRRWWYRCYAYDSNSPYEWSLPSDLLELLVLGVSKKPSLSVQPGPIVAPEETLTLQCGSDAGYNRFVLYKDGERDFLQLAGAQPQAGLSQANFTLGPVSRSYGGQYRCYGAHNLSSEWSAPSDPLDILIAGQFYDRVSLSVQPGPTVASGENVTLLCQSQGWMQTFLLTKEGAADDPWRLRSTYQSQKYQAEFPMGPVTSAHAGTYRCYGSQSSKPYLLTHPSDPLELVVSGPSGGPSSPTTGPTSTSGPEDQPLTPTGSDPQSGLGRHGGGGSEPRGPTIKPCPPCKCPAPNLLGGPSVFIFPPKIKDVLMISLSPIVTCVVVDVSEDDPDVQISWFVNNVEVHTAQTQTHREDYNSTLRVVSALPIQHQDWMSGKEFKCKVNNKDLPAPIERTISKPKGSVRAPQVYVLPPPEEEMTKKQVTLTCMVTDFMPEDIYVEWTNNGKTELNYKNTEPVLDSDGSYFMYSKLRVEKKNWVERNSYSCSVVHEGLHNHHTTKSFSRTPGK
T6 sequence (Q8N6C8 24-439 A105V limits assumed): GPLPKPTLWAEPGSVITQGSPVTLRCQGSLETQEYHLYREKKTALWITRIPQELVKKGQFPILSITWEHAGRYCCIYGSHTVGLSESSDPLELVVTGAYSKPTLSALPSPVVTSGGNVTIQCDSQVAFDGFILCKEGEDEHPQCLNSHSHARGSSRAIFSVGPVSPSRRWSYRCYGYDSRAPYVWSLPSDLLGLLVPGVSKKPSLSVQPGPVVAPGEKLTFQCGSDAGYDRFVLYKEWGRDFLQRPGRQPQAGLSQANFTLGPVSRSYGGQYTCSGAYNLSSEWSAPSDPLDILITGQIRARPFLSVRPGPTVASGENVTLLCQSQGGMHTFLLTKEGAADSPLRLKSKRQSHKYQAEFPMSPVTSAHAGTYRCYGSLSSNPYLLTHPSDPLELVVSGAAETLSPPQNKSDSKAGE
T11 sequence (chain, as listed by the source I142T S155I I142T S155I limits assumed): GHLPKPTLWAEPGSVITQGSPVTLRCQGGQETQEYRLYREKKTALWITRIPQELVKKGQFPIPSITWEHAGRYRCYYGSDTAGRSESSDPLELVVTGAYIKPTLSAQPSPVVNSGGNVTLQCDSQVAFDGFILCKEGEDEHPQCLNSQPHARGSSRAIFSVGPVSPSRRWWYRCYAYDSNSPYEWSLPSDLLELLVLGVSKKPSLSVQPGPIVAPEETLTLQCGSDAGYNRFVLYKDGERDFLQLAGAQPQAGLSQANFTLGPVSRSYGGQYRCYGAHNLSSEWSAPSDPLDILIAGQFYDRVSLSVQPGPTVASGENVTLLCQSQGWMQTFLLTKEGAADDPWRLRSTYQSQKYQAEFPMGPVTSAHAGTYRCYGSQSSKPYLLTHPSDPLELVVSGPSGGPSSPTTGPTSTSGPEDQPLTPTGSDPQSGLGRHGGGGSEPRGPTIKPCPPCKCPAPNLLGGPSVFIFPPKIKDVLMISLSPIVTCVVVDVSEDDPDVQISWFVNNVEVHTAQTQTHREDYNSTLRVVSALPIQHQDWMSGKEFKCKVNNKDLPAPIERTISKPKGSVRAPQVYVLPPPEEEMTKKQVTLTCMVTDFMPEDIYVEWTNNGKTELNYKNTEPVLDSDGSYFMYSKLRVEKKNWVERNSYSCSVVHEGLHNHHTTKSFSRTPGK
Chain of LILRA4 recombinant, full-length ectodomain (LILRA4 24-446) (P59901 24-446): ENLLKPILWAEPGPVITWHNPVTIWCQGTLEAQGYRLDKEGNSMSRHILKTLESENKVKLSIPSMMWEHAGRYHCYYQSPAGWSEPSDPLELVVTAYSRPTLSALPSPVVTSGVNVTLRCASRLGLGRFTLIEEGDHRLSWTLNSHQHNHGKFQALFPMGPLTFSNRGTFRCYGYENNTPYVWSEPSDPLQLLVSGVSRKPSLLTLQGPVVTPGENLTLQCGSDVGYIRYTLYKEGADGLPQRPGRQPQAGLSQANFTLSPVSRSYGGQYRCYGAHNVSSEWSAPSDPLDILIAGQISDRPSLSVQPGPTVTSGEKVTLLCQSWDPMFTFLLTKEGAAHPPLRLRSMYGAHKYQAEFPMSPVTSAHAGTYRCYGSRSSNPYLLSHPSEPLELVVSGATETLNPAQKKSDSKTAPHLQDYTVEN
T1 sequence (Q8NHL6 24-650 limits assumed): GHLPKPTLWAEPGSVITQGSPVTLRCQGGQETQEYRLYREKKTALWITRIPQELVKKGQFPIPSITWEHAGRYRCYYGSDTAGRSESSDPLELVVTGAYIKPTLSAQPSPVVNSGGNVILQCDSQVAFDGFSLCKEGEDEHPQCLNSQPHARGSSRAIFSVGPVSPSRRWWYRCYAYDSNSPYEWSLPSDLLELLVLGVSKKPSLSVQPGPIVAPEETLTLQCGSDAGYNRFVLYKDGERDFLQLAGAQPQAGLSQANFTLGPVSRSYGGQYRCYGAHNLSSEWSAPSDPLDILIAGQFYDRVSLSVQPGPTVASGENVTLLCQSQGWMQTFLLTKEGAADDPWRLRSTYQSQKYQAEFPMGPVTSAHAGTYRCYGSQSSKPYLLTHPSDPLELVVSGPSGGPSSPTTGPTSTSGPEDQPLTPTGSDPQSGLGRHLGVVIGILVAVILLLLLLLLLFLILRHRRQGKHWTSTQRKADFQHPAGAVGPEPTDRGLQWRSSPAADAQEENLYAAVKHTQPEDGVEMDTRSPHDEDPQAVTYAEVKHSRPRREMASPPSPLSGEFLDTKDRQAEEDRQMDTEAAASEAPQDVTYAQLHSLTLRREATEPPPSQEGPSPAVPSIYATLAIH
Chain of LILRB5 recombinant, full-length ectodomain (LILRB5 18-456) (O75023 24-456 limits assumed): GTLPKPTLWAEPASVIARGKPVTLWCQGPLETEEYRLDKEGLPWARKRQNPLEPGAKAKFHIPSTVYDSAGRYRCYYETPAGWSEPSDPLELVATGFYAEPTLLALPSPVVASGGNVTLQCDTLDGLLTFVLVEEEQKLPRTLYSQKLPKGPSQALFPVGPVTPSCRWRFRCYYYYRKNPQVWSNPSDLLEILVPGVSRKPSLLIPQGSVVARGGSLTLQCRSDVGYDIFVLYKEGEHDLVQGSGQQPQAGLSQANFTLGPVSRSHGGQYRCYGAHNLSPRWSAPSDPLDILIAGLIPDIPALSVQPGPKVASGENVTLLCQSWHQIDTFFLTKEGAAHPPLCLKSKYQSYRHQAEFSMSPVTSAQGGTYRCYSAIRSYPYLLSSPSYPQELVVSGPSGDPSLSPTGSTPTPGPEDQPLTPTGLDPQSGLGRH
Chain of LILRB3 recombinant, full-length ectodomain (LILRB3 24-443) (O75022 24-443): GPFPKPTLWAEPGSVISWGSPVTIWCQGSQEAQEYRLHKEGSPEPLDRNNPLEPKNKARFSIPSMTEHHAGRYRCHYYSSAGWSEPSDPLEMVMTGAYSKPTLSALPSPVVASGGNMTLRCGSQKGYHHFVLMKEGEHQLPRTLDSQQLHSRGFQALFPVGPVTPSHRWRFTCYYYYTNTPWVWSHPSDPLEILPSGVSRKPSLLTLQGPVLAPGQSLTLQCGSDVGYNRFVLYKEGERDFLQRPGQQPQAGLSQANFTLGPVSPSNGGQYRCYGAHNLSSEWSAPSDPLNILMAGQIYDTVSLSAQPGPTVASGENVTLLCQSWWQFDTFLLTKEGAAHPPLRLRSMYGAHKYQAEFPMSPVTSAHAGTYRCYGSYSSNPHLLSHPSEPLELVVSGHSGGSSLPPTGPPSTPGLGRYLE
Chain of LILRA5 recombinant, full-length ectodomain (LILRA5 42-268) (A6NI73 42-268): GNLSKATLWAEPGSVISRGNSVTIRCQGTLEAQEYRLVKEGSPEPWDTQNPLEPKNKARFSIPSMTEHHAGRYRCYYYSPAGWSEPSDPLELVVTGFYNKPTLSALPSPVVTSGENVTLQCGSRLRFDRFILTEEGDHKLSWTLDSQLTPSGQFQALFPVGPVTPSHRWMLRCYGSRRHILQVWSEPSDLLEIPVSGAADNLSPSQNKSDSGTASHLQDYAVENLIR
Chain of LILRB1 recombinant, full-length ectodomain (Q8NHL6 24-461 limits assumed): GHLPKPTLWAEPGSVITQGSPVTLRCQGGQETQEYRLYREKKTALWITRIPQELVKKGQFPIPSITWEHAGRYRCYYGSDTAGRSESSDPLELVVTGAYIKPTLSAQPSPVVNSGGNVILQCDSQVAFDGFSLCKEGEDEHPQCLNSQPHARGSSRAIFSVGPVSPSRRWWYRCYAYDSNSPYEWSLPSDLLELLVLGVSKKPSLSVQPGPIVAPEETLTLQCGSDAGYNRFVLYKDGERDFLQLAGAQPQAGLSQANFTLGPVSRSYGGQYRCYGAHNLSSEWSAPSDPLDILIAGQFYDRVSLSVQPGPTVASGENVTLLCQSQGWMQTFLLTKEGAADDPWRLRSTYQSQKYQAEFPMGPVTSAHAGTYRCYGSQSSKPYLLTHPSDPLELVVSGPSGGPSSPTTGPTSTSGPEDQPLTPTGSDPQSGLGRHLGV

- EC50 [1]: 730 pM
- binding result [2]: binds
- binding result [3]: binds
- binding result [4]: no binding
B1: Reference Antibody 1 (anti-human LILRB1 Ab) (antibody, V domains shown)
VH: DVQLQGSGPGLVKPSETLSLTCSVTGYSITSGYYWNWIRQFPGKKLEWMGYISYDGSNNYNPSLKNRITISRDTSKNQFSLKLNSVTAADTATYYCAHGYSYYYAMDAWGQGTSVTVSS
VL: DIQMTQSPSSLSASVGDRVTITCRTSQDISNYLNWYQQKPGKAVKLLISYTSRLHSGVPSRFSGSGSGTDYTLTISSLQPEDFATYYCQQGNTLPTFGQGTKLEIK

- EC50 [5]: 8370 pM
- EC50 [6]: 740 pM
- EC50 [7]: 620 pM
- EC50 [8]: 840 pM
- EC50 [9]: 920 pM
- EC50 [10]: 690 pM
- EC50 [11]: 780 pM
- binding result [12]: binds
- binding result [13]: binds
- binding result [14]: no binding (tested: 1 nM)
- binding result [15]: no binding (tested: 1 nM)
- binding result [16]: no binding (tested: 1 nM)
- binding result [17]: no binding (tested: 1 nM)
- binding result [18]: binds
- binding result [19]: no binding
- binding result [20]: binds
- binding result [21]: binds
B2: Antibody 2 (antibody, V domains shown)
VH: QVQLVESGGDLVKPGGSLRLSCAASGFTFRDYYMSWIRQAPGKGLEWVSYISPSGSTIFYADSVKGRFTISRDNAKNSLYLQMNSLRAEDTAVYYCAKDRVRLFDYWGQGTLVTVSS
VL: EIVLTQSPATLSLSPGERATLSCRASQSVSSSYLAWYQQKPGQAPRLLIYGASTRATGIPARFSGSGSGTDFTLTISRLEPEDFAVYYCQQRSNWPITFGQGTRLEIK
notes: Fully human antibody; IgG1 and IgG1 LALA variants also made for functional assays; also called Clone 2; Antibody Clone 2
